From US20260022150A1 (KEROS THERAPEUTICS, published 2026) come the findings set out here.

The target in the assay is T1, human GDNF family receptor alpha-1 (GFRα1) joined to an Fc domain at its C-terminus (human, UniProt P56159-2 25-445).
T1 construct: Bought from R&D Systems; also called GFRa1-hFc; human GFRα1 Fc chimera (R&D Systems); not shown: human Fc domain joined to the C-terminus of GFRα1
T1 sequence (looked up): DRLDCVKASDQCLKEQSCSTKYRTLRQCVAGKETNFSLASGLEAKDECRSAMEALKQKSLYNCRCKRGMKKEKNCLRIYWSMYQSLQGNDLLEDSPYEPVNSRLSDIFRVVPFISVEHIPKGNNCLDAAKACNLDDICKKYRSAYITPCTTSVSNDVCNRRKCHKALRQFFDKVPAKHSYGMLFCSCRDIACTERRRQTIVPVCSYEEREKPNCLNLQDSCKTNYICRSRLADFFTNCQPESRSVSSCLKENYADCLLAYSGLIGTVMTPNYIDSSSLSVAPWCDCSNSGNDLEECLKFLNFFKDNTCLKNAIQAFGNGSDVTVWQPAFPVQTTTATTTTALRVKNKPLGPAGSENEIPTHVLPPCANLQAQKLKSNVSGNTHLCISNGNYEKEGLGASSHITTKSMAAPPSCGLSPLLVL
The experiment in a line: SPR; GFRα1-Fc chimera captured on CM5 chip by His-tag capture kit, analyte flowed over; apparent KD (KD,app). The text has this:
Surface Plasmon Resonance (SPR) was used to determine the binding affinities of the GDNF fusion polypeptides to GFRα1. The GDNF fusion polypeptides in this example include fusion polypeptides 2-4 as described in Example 1, as well as Fc (T366W)-GGG-hGDNF₁₁₇₋₂₁₁ (SEQ ID NO: 37) (fusion polypeptide 6) which has an Fc domain having the amino acid substitution T366W (relative to the sequence of human IgG1) joined to the N-terminus of the GDNF variant having amino acids 117-211 of SEQ ID NO: 1 through a GGG linker. The SPR assay was configured to capture human GFRα1, GFRα2, and GFRα3 Fc chimeras (R&D Systems) onto a CM5 chip surface using His-tag capture kit (GE Healthcare) to appropriate levels for kinetic analysis. GDNF fusion polypeptides were flowed over the immobilized GFRs to measure the kinetics of GDNF fusion polypeptide and GFR association and dissociation. The binding of various concentrations of GDNF fusion polypeptides was measured in HBS-EP buffer (GE Healthcare) at a flow rate of 30 μL/min. Binding curves were fitted using Scrubber2 software to obtain apparent binding affinities and kinetic constants.
(In general: SPR reads the build-up and loss of mass on a sensor chip optically.)

B1: R&D hGDNF (ligand, human, UniProt P39905 78-211, looked up)
chain: SPDKQMAVLPRRERNRQAAAANPENSRGKGRRGQRGKNRGCVLTAIHLNVTDLGLGYETKEELIFRYCSGSCDAAETTYDKILKNLSRNRRLVSDKVGQACCRPIAFDDDLSFLDDNLVYHILRKHSAKRCGCI
notes: also called human glial-derived neurotrophic factor
For B1, the Kd was roughly 0.9 nM.
